According to the supplement of paper PMC9732359:
± gives the uncertainty stated by the source.

Assay: protein stability index of a GFP-peptide fusion (yeast GPS) (PSI 1-4); higher = more stable; sorted into four equal gates, so the index is relative within each strain
How it was run: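 Peptides tiling yeast proteins in 17-residue segments were fused downstream of GFP, with Cherry expressed from the same plasmid. As a pooled library in yeast, mid-log cultures grown in leucine-free medium were sorted into four equal gates by GFP/Cherry fluorescence ratio. Gate plasmids were PCR-amplified and Illumina-sequenced, and barcodes linked reads to strains. Each peptide received a protein stability index equal to the sum of each gate's read frequency times its gate number.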

| Sequence | protein stability index (doa10∆) | protein stability index (pdr5∆) | protein stability index (san1∆) | protein stability index (ubr1∆) |
| --- | --- | --- | --- | --- |
| NEDARAIFNNEFDSDDD [RPN4] | 3.09 ± 0.075 | 2.87 ± 0.096 | 3.42 ± 0.073 | 3.41 ± 0.097 |
| KVLKSGSGVDSSKLQLT [RRP42] | 2.94 ± 0.14 | 2.94 ± 0.1 | 3.16 ± 0.074 | 3.29 ± 0.1 |
| FTGEKPIITGSTSTSSS [MED8] | 2.71 ± 0.062 | 2.7 ± 0.054 | 2.78 ± 0.052 | 2.13 ± 0.043 |
| QFAPAFLNTPNNNINEN [SSN2] | 2.92 ± 0.067 | 2.98 ± 0.063 | 2.66 ± 0.068 | 2.89 ± 0.06 |
| NSSNLSYNNTGISDDEN [RRP4] | 2.53 ± 0.07 | 2.87 ± 0.064 | 2.87 ± 0.049 | 2.79 ± 0.06 |
| IFIATQLEKKIRFVCLS [BRR2] | 2.17 ± 0.2 | 1.86 ± 0.11 |  | 1.49 ± 0.074 |
| SIDSTSRIELELKNIGL [ECM29] | 2.59 ± 0.052 | 2.75 ± 0.045 | 2.74 ± 0.042 | 2.44 ± 0.028 |
| IIKKDEVVKRYLKMRQD [PUP3] | 3.66 ± 0.2 |  |  |  |
| MYGLTMEWPKDMLKYKE [ITC1] | 3.53 ± 0.17 | 3.1 ± 0.28 |  | 3.07 ± 0.2 |
| QHQSLSRSSSKNVNIED [ESC2] | 2.83 ± 0.18 | 2.69 ± 0.11 | 2.32 ± 0.11 | 3.04 ± 0.084 |
| VDNTTEQSNSRKRTRSE [YCG1] | 3.27 ± 0.18 |  | 2.83 ± 0.1 |  |
| IVPGTYIQERNPSQRPQ [RPS10B] | 3.01 ± 0.055 | 3.07 ± 0.045 | 3.08 ± 0.037 | 3.26 ± 0.038 |
| ALSAYHKVQTKLTRELE [RPS7B] | 2.4 ± 0.055 | 2.54 ± 0.058 | 2.33 ± 0.065 | 2.58 ± 0.043 |
| TGAASNQSSFNFGNNGA [YOR098C/NUP1] | 2.65 ± 0.11 | 2.79 ± 0.099 | 2.5 ± 0.096 | 2.93 ± 0.074 |
| GLEVGPVVQVGIFIKIL [IRR1] | 2.38 ± 0.068 | 2.25 ± 0.056 | 2.11 ± 0.15 | 2.47 ± 0.059 |
| HGLILELQKIWQIEEAG [SRB5] | 2.86 ± 0.094 | 2.93 ± 0.091 | 3.19 ± 0.048 | 3.14 ± 0.043 |
| AKIDVMLTIARLGFFYN [RPN7] | 2.44 ± 0.15 | 2.89 ± 0.14 | 3.42 ± 0.14 | 3.14 ± 0.094 |
| NGAFQNSSNLSYNNTGI [RRP4] | 2.58 ± 0.069 | 2.85 ± 0.053 | 2.98 ± 0.045 | 2.84 ± 0.055 |
| PSGAKKVISSDARGVIG [RPL2A] | 2.88 ± 0.072 | 3.13 ± 0.066 | 2.9 ± 0.076 | 3.04 ± 0.077 |
| KKASKVTVDADIDDILK [ISW2] | 2.75 ± 0.081 | 3.18 ± 0.065 | 3 ± 0.058 | 3.1 ± 0.046 |
| KYIGEGSRMVRELFVMA [RPT6] | 2.24 ± 0.063 | 2.11 ± 0.058 | 2.81 ± 0.082 | 1.89 ± 0.07 |
| EPHAVSLAWSADGQTLF [ASC1] | 2.85 ± 0.12 | 3.06 ± 0.14 |  | 2.79 ± 0.26 |
| IMKIGGIKLQMQNSKVE [SMC4] | 2.11 ± 0.13 | 1.82 ± 0.1 | 2.25 ± 0.12 | 2.1 ± 0.12 |
| GIRAPKGALMYGPPGTG [RPT5] | 2.86 ± 0.14 |  |  | 1.32 ± 0.11 |
| ITLALADAGIELVDMAG [MTR3] | 1.89 ± 0.072 | 2.43 ± 0.065 | 2.2 ± 0.1 | 2.12 ± 0.075 |
| APNHSPEIDNLDDLVVL [RRP6] | 3.16 ± 0.11 | 3.51 ± 0.11 | 3 ± 0.15 | 2.71 ± 0.088 |
| SLIIDQQENSKSGKRKP [RPC31] | 2.71 ± 0.099 | 2.7 ± 0.1 | 2.69 ± 0.086 | 2.7 ± 0.092 |

| Sequence | protein stability index (doa10∆) | protein stability index (pdr5∆) | protein stability index (san1∆) | protein stability index (ubr1∆) |
| --- | --- | --- | --- | --- |
| NALYDTLLESNLCKIIE [RPN6] | 2.07 ± 0.068 | 2.48 ± 0.079 | 2.01 ± 0.065 | 2.41 ± 0.082 |
| RKRHQRALKVRNAQAQR [RPS6A] | 3.04 ± 0.14 | 2.96 ± 0.1 | 2.73 ± 0.073 | 2.96 ± 0.13 |
| RSMLTVVRNMLALTTLS [YCG1] | 1.91 ± 0.061 | 1.9 ± 0.067 | 2.29 ± 0.065 | 2.49 ± 0.063 |
| TFGKPEEEDSILSLEQS [YCS4] | 3.19 ± 0.091 | 3.19 ± 0.074 | 3.14 ± 0.057 | 3.13 ± 0.095 |
| LGNTVSTQPSFAWSKPS [YGR119C/NUP57] | 2.62 ± 0.067 | 2.84 ± 0.056 | 2.85 ± 0.077 | 2.25 ± 0.035 |
| RYKFPGQQKIILSKKWG [RPL10] | 2.69 ± 0.22 |  |  | 2.29 ± 0.21 |
| EFLFESLKNDLPQFRSS [ECM29] | 2.93 ± 0.087 | 3.1 ± 0.092 | 3.28 ± 0.082 | 3 ± 0.11 |
| KLIEKKSAYANTEKDYK [SMC2] | 2.71 ± 0.057 | 2.59 ± 0.059 | 2.83 ± 0.053 | 2.88 ± 0.045 |
| EMINEQKLPQYIIQGSN [RGR1] |  | 2.96 ± 0.27 |  | 3.15 ± 0.2 |
| SNKILVYESEMEQCKQR [YIL149C/MLP2] | 2.72 ± 0.17 | 2.95 ± 0.17 | 2.18 ± 0.28 | 3.16 ± 0.26 |
| NEWIKAQEDVPYLLPYI [QCR7] | 2.42 ± 0.095 | 2.46 ± 0.078 | 2.6 ± 0.077 | 2.5 ± 0.056 |
| WPIVQKTYEPVLNEDDL [RPN5] | 2.32 ± 0.068 | 2.59 ± 0.11 | 1.85 ± 0.098 | 2.27 ± 0.071 |
| AHAIDQMTWRQWLNNAL [POP8] | 2.67 ± 0.065 | 2.6 ± 0.046 | 2.41 ± 0.055 | 2.58 ± 0.04 |
| AVLKKIQSKAVEQGYED [YCG1] | 3.05 ± 0.12 | 3.38 ± 0.092 | 3.08 ± 0.072 | 3.07 ± 0.084 |
| GDYGSAKCNSLLQLKYF [POP5] | 2.31 ± 0.049 | 2.24 ± 0.056 | 2.23 ± 0.067 | 2.59 ± 0.071 |
| KELMLQSKKLIEEKLSS [YIL149C/MLP2] | 2.95 ± 0.12 | 2.96 ± 0.11 | 2.72 ± 0.11 | 3.05 ± 0.07 |
| NDLRVSLNEKNALHTER [SMC1] | 3.11 ± 0.11 | 3.24 ± 0.096 | 2.67 ± 0.11 | 2.81 ± 0.089 |
| NYPQDEINAVFNELCDP [POP1] | 2.84 ± 0.059 | 3.04 ± 0.051 | 2.9 ± 0.057 | 3.07 ± 0.056 |
| KNNNGDEKNKNNNEDNE [MED2] | 3.23 ± 0.12 | 3.17 ± 0.11 | 2.87 ± 0.11 | 3.15 ± 0.11 |
| RNSTRSSGFNEDIVGAL [REC8] |  | 3.58 ± 0.21 |  |  |
| VTNFNSTNEDQNNSKHT [SRB5] | 3.18 ± 0.16 | 2.44 ± 0.15 | 3.06 ± 0.18 | 2.71 ± 0.076 |
| KRPTPPSFTFGGSTTNN [YOR098C/NUP1] | 2.74 ± 0.051 | 3.03 ± 0.048 | 2.78 ± 0.043 | 2.9 ± 0.032 |
| LKWIDTASKFGKGRFQT [RPL3] | 3.34 ± 0.11 | 3.06 ± 0.094 | 3.11 ± 0.071 | 3.09 ± 0.065 |
| VSDSNDDVRRAAVIALG [RPN2] | 3.26 ± 0.1 | 3.26 ± 0.13 | 2.7 ± 0.17 | 3.42 ± 0.14 |
| KSSFVKESAVISKQKSK [SMC1] | 2.18 ± 0.1 | 2.34 ± 0.046 | 2.26 ± 0.064 | 2.37 ± 0.037 |
| YLGTKVELPYGAHGYSG [PRE1] | 2.77 ± 0.18 | 2.38 ± 0.11 | 2.5 ± 0.1 | 2.96 ± 0.086 |
